Consider one molecule from JP2014195458A (dated 2014).

The target in assay [1] is T1, recombinant human interleukin-6 (human, UniProt P05231 30-212).
T1 construct: Recombinant human IL-6 came from several suppliers; also called IL-6; rhIL-6
The assay can be described thus: Luminex-based assay of IL-6 binding to IL-6 receptor.

Assay [2] concerns the target T1, recombinant human interleukin-6. The assay can be described thus: solid-phase ELISA on coated rIL-6 and solid-phase RIA with 125I-rIL-6, hybridoma supernatant.
Assay [3] has the same target. The assay can be described thus: cell-based or functional assay.

T1 sequence (P05231 30-212 limits assumed): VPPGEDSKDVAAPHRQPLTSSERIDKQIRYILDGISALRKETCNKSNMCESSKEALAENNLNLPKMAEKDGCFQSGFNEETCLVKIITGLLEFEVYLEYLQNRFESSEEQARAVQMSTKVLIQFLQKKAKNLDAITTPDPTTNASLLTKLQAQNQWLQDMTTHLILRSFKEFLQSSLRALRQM

B1: mouse anti-IL-6 monoclonal antibody CLB-8 (antibody, V domains shown)
VH: EVQLVESGGKLLKPGGSLKLSCAASGFTFSSFAMSWFRQSPEKRLEWVAEISSGGSYTYYPDTVTGRFTISRDNAKNTLYLEMSSLRSEDTAMYYCARGLWGYYALDYWGQGTSVTVSS
VL: QIVLIQSPAIMSASPGEKVTMTCSASSSVSYMYWYQQKPGSSPRLLIYDTSNLASGVPVRFSGSGSGTSYSLTISRMEAEDAATYYCQQWSGYPYTFGGGTKLEIK
notes: also called CLB-IL6-8; CLB.IL-6/8
On to B1, for which the percent inhibition of IL-6 binding to IL-6 receptor in assay [1] came to 100%. Also, the binding result in assay [2] is “binds”. For the same molecule, in assay [3], the IL−6依存性7TD1細胞増殖バイオアッセイ came out at 100% and the IL−6誘発性細胞増殖の阻害 (7TD1 cells, ATP luminescence), EC 50 came out at 7.2 ng/mL.
